Results on two molecules are retold here after publication PMC2504300.

Where a chain is given by its changes, count along the chain named.

As usually defined, the Kd is the equilibrium constant for the complex coming apart.

Holding throughout (assay): filter binding
Data set [1] deals with T1, Grp (glutamine receptor protein) (Sulfolobus tokodaii strain 7, UniProt F9VNT4 1-150).
T1 sequence: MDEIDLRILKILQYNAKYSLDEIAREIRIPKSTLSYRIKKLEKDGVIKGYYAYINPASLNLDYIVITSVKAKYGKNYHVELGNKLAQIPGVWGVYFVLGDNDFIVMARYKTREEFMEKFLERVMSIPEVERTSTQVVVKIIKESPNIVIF

Another data set addresses T2, Grp S32A (Sulfolobus tokodaii strain 7, UniProt F9VNT4 1-150, S32A).
T2 sequence: T1 sequence with S32A

In data set [2] the target is T1, Grp (glutamine receptor protein). This is another data set of the same source.
A further data set deals with T3, Grp Y77A (Sulfolobus tokodaii strain 7, UniProt F9VNT4 1-150, Y77A).
T3 sequence: T1 sequence with Y77A

B1: 111-bp grp promoter (dsDNA)
DNA 1: CGTATCTTCCAAAGATTATAAGCGATTTTTTGTAAGTCTTTTTTTATTATAAGTGTTGATTAGATATAATTCAAAGTAAAGGCTTATATTTTTGTTTATAATATACAGTCT
DNA 2: AGACTGTATATTATAAACAAAAATATAAGCCTTTACTTTGAATTATATCTAATCAACACTTATAATAAAAAAAGACTTACAAAAAATCGCTTATAATCTTTGGAAGATACG
As to B1, in data set [1], the binding result is “binds”.

B2: 18-bp grp promoter fragment (dsDNA)
DNA 1: ATATTTTTGTTTATAATA
DNA 2: TATTATAAACAAAAATAT
B2: in the data set with Grp S32A, the binding signal was ~5 fold lower binding than wild type. This molecule gave a Kd in data set [2] of 188 ± 1 nM. Also, the binding result with Grp Y77A is given as “no binding”.
